± gives the half width of the 95% confidence interval.
Tests used:
[1] = folding stability dG unfold from trypsin proteolysis; higher = more stable
Summary of the method: (§1)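 How resistant each design was to proteolysis was captured as K50, inferred by Bayesian fitting of sequencing counts. Unfolding free energy was then derived relative to a sequence-predicted unfolded-state K50 and a shared folded-state K50, per protease or combined. Digestion used trypsin and chymotrypsin at 11 threefold-diluted concentrations plus a no-protease condition, on mini-proteins under 80 residues without cysteine in a PA-tagged cDNA display construct. Designs were kept only when AlphaFold2 dimer inter-PAE was above 15.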

[2] = folding stability dG unfold from chymotrypsin proteolysis; higher = more stable
Summary of the method: as §1

[3] = folding stability dG unfold (combined trypsin and chymotrypsin); higher = more stable
Summary of the method: as §1

Sequence | folding stability dG unfold [1] | folding stability dG unfold [2] | folding stability dG unfold [3]
SAGGMKLKPVKEGEEIEIELEIVDKETKKVYKVKAKITVVKDKETKEYYVKIEIENPETGEKYTFLLKSAGG [r13_262_TrROS_Hall] | 2.17 ± 0.13 kcal/mol | 2.34 ± 0.12 kcal/mol | 2.21 ± 0.36 kcal/mol
SAGGSAGGSASEIMDEFPNLEIDNVNPDHGMMIIKWPDGWYWRVNVGNGEIEPVSPEDLEDMSAGGSAGGSA [r18_381_TrROS] | 0.447 ± 0.037 kcal/mol | 0.983 ± 0.083 kcal/mol | 0.828 ± 0.18 kcal/mol
SAGGSAGGKEVKIEIYDSDDGILLVEVPDLDDAVEAVEKLGVELELVPYDPEKGRLLLRLRIPGSAGGSAGG [r6_510_TrMRF] | 0.26 ± 0.21 kcal/mol | 0.8 ± 0.2 kcal/mol | 0.64 ± 0.16 kcal/mol
SAGGSAGGSAGEPVEVTPLSTETVPDSDTTVTYYKVTYPGGKEAIRTVYSDGTETTTPLPSAGGSAGGSAGG [r11_637_JUSTAS] | 0.915 ± 0.12 kcal/mol | 1.02 ± 0.1 kcal/mol | 0.969 ± 0.17 kcal/mol
SAGGSAMKAKEIKRLKLKDRPLVVIFLENPEGGYSVLVIPLENPEKVEELLEELVKEGLLDEITPESAGGSA [r15_575_TrMRF] | 1.03 ± 0.031 kcal/mol | 1.93 ± 0.082 kcal/mol | 1.59 ± 0.074 kcal/mol
SAGGMKKYKIKVENLPPGARIITPDGREIKPGEEVEIELPEDVKEIYVILPDGKIVKVKVEEVEPEEESAGG [r13_441_TrROS_Hall] | 4.12 ± 0.3 kcal/mol | 4.31 ± 0.15 kcal/mol | 3.71 ± 0.76 kcal/mol
SAGGSAGGSSLTLRLRLRLRVRVLDEETGELSEFEVEVELELRFEPAPPPPPPPLVLRDGKLVSAGGSAGGS [r12_140_TrROS_Hall] | 3.43 ± 0.15 kcal/mol | 4.53 ± 0.18 kcal/mol | 4.34 ± 0.34 kcal/mol
SAGGSAGGMKKYKMTITFKTPDGTPVKEKTIYFNSEEEAKKAAEEIKKKELEPDTPVTVSKEPDSAGGSAGG [r6_286_JUSTAS] | 0.425 ± 0.05 kcal/mol | 1.13 ± 0.071 kcal/mol | 0.898 ± 0.069 kcal/mol
SAGGKEVKPIKGKVKITVNGKEIEVEVKKAKIVKNKDGSYYIFIEKDGKKLLIKLKNGKLVKIEEVPSAGGS [r16_721_TrROS_Hall] | 2.37 ± 0.097 kcal/mol | 3.89 ± 0.042 kcal/mol | 3.42 ± 0.089 kcal/mol
SAGGSAGGSSVLEVDPETGITVAVQDPSTGRYYVRNPEGEIREFDSPEEIREAFGRPVNFKTAPSAGGSAGG [r6_753_JUSTAS] | 0.559 ± 0.018 kcal/mol | 0.787 ± 0.082 kcal/mol | 0.753 ± 0.057 kcal/mol
SEALEKAAEAGVKTIYVYVKPGDLEEIKRLKALDVKIVLYATEEIPPEAFEALPGVKVEKVEWISPEELPSA [r9_671_TrMRF] | 0.759 ± 0.023 kcal/mol | 2.08 ± 0.052 kcal/mol | 1.65 ± 0.1 kcal/mol
SAGGEEVTIKLSDELRDLVPDAEIRVERLEDGTLRIEIRVRLPAPEPPEPVERREERRVEVRVEVRLESAGG [r13_129_TrROS_Hall] | 1.98 ± 0.16 kcal/mol | 2.22 ± 0.22 kcal/mol | 2.14 ± 0.13 kcal/mol
SAGGSAGGSAGKMYRITVTNENGEKLEIEVPEEVKTEEELKEELKKKIPNVVEVKIEEVPSAGGSAGGSAGG [r11_311_TrROS_Hall] | 0.242 ± 0.096 kcal/mol | 0.433 ± 0.14 kcal/mol | 0.377 ± 0.25 kcal/mol
SAGGSAGGEEEYYEIEIVLPKEKAEEILEELKKKLPEGWEIVSVEVVEVDEDGYVRLRIVVKRTSAGGSAGG [r6_340_TrROS_Hall] | 5.01 ± 0.53 kcal/mol | 4.21 ± 0.14 kcal/mol | 4.52 ± 0.3 kcal/mol
SAGAVELPPGVAAVERDPETGVVTATYPDGTVTRYTVSTEWDPTVGRTRPRVTVEVWSPDSRISTRDLPSAG [r5_109_JUSTAS] | 0.119 ± 0.31 kcal/mol | 0.799 ± 0.13 kcal/mol | 0.527 ± 0.12 kcal/mol
SAGGSAGGSAGGSGPVPVTIKSVTTYPEKDVYKVETVPATPEPITITLSPEELSDVVILSAGGSAGGSAGGS [r4_51_JUSTAS] | -1.69 ± 0.57 kcal/mol | -0.437 ± 0.2 kcal/mol | -0.561 ± 0.19 kcal/mol
SAGKKYVVVIDIEVKMPGKTKPRPIVIPVPEGETIKEQLSELPGLDNVKIKIQVIPPDQDPDFAGQPISAGG [r19_339_TrROS] | 0.569 ± 0.16 kcal/mol | 1.76 ± 0.17 kcal/mol | 1.2 ± 0.29 kcal/mol
SAGGSMVKVEVHYDPERDLVLVTVEAPDDPELVDEFVERMKKLGAKRVEVFRFPEDGKVRILVEIGSAGGSA [r2_358_TrMRF] | 3.08 ± 0.11 kcal/mol | 4.68 ± 0.081 kcal/mol | 4.36 ± 0.1 kcal/mol
SAGGSAGGSAGGIEDMAEKNPDWKIVEPIEIEIPYYNPDGKWYEVEYTIFVIVPPGDEISAGGSAGGSAGGS [r10_0_TrROS] | 1.46 ± 0.16 kcal/mol | 2.12 ± 0.075 kcal/mol | 1.79 ± 0.23 kcal/mol
SAGTELELEAEAEVLFPELGTRARVRVRARVRPTEDEVEVELEVEAEFEPLPLVPPIVSPEENPELAEGSAG [r14_435_TrMRF] | 3.19 ± 0.12 kcal/mol | 2.7 ± 0.14 kcal/mol | 3.08 ± 0.17 kcal/mol
SAGGPWVVIKIRTPNKPIEIPIPGFKIENTGDSMTIVFPPDDPDQVLDALEKASPGIKITKIEVVKPSAGGS [r8_490_TrROS] | 0.65 ± 0.06 kcal/mol | 0.318 ± 0.12 kcal/mol | 0.575 ± 0.1 kcal/mol

Reference: the supplement of paper PMC12764529
